Experiments:
[1] = molecular target: hemagglutinin (HA) on live influenza A virus A/Wisconsin/67/05 H3N2 (Influenza A virus A/Wisconsin/67/2005 …); assay: cell-based or functional assay
[2] = molecular target: hemagglutinin (HA) on live influenza A virus A/Solomon Islands/3/06 H1N1 (Influenza A virus A/Solomon …); assay: cell-based or functional assay
[3] = molecular target: hemagglutinin (HA) of influenza A/Japan/305/57 H2N2 (Influenza A virus A/Japan/305/1957 …, UniProt P03451 16-562); assay: ELISA, inactivated whole virions coated; transfection supernatant set 5
[4] = molecular target: T1, hemagglutinin (HA) of influenza A/Solomon Islands/3/06 H1N1 (Influenza A virus A/Solomon …); assay: as above
[5] = molecular target: T1, hemagglutinin (HA) of influenza …; assay: cell-based or functional assay

Binder | % Neutralization [1] [%] | % Neutralization [2] [%] | OD450 [3] [OD450] | OD450 [4] [OD450] | % Neutralization [5] [%]
TCN-558 (5248_H10b) (antibody, V domains shown) VH: QVQLVQSGSEVKKPGTSVKVSCTASGSVFTNYGISWVRQAPGQGLEWMGGIIPLFGAAKYAQKFQGRVTITADESTKTVYMELSRLTSKDTAIYFCAKAPRVYEYYFDQWGQGTPVTVSS VL: EIVMTQFPATLSVSPGERVTLSCRASQSVSNNLAWYQQKPGQPPRLLIYDASTRATGVPAKFSGTGSGTEFTLSISSLQSEDFAVYYCQQYHNWPPSYSFGLGTKLEIK | 7 | 84 |  |  | 
TCN-543 (5081_G23) (antibody, V domains shown) VH: QVHLVQSGAEVRKPGDSVKVSCKTSGYTFSTYPVAWVRQVPGQGLEWMGWISTYNGNTNFAQNFQGRVTLTTDTTTNTAYMEVRSLKFDDTAVYYCARVEGSYRDFWNNQNRFDPWGQGTLVTVSS VL: SYVLTQPPSVSVAPGQTARISCGGSNIGGKSVHWYQQKPGQAPVLVVYDDSGRPSGIPERFSGSNSGDTATLTISRVEAGDEADYFCQVWDNFGGVFGTGTKVTVL | 73 | 98 |  |  | 
TCN-560 (5084_P10) (antibody, V domains shown) VH: EVQLVESGGGLVQPGGSLRLSCAASGFIFRNYWMSWVRQAPGKGLEWVANIKQDGREKYYVDSLRGRVNISRDNAENSLYLHMNSLRVEDTAVYFCARARMVVVTGDGFDVWGHGTMVTVSS VL: DIQMTQSPSSLSASVGDRVTITCRASQNIKRYFNWYQQKPGKAPKLLIYAASNLENGVPSRFSGSGSGTDFTLTISSLQPEDFATYYCQQSFSKSWTFGQGTNVDIK |  |  | 3.55 | 3.52 | 94
TCN-553 (5261_C18) (antibody, V domains shown) VH: QVQVVQSGTEVKKPGSSVKVSCQTSGGRFMSYAITWVRQAPGQGLEWMGGIVPVFGTANYAQKFQGRVTITTDDSTRTAYMELSSLRSEDTAVYYCGFRYGSGYGFDSWGQGTLVTVSS VL: EIVLTQSPGTLSLSPGERATLSCRASQSVSSSYLAWYQKKPGQAPRLLIYGASTRATGIPDRFTGSGSGTDFTLSISRLEPEDFAVYYCQHFGTSVFTFGGGTKVEIK | 5 | 44 |  |  | 
TCN-545 (5082_I15) (antibody, V domains shown) VH: QVQLQQWGAGLLKPSETLSLSCAVFGGSFSDYYWTWIRQPPGKGLEWIGEIKHSGRTNYNPSLESRVTISVDTSKNQFSLKLSSVTAADTAIYYCARGTDPDTEGYCRSGSCSAFDFWGQGTLVTVSS VL: EIVLTQSPGTLSLSPGERATLSCRASHFVNYRSLAWYQQTPGQVPRLLIYGASTRATGIPDRFSGSGSGTDFTLTISRLEPEDFAVYFCQQYGGSPRYTFGQGTRLEIK | 99 | 88 |  |  | 
TCN-534 (5249_B02) (antibody, V domains shown) VH: QVQLVQSGAEVKKPGSSVKVSCRESGGTFNGYTITWVRQAPGQGLEWMGGIIPMMGTVNYAQKLQGRVTITTDYFTKTAYMDLNNLRSEDTAMYYCVKIRYTGQQLLWGQGTLVTVSS VL: DIQMTQSPSTLSASIGDRVTITCRASQSIASWLAWYQQKPGKAPKLLIYEAVNLESGVPSRFSGSGSGTDFTLTISSLQPDDFATYFCQHYGTISQTFGGGTKVEIK | 0 | 65.7 |  |  | 
TCN-538 (3206_O17) (antibody, V domains shown) VH: QITLKESGPTLVKPTQTLTLTCVFSGFSLSITGVRVGWIRQPPGKALEWLALISWDDEKHYSPSLQSRLTITKDTSKNQVVLTMTNLDPVDTATYYCARSTDRGHVLRYFGWMLPGDAFDVWGQGTMVTVSS VL: DIVMTQSPDFLPVSLGERATINCKSSQRVLYSSNNKNYLAWYQLKPGQPPKLIIYWASTRESGVPDRFSGSGSGTEFTLTISSLQAEDVAVYYCQQYYSRPYTFGQGTKLEIK | 0 | 21 |  |  | 
TCN-536 (5095_N01) (antibody, V domains shown) VH: QVQLQQWGAGLLKPSETLSLTCAVYGGSFSVSGYYWSWIRQPPGRGLEWIGEISHGGSTNYNPSLKSRVTISVDTTKNQFSLRLSSVTAADTAVYYCARGTDPDTEVYCRVGNCAAFDYWGQGSLVTVSS VL: EIILAQSPGTLSLSPGERATLSCRASQFVSTRSLAWYQQRPGQAPRLLIYGASSRATGIPDRFSGSGSGTDFTLTISRLEPEDFAVYYCQHYGYSPRYAFGQGSKVEIK | 99.9 | 81.6 |  |  | 
TCN-555 (5246_L16) (antibody, V domains shown) VH: QVQLVQSGAEVKRPGSSVKVSCTASGGIFRKNAISWVRQAPGQGLEWMGGIIAVFNTANYAQKFQNRVKITADESGNTAYMELSSLTSDDTAVYYCASHPKYFYGSGSYPDFWGQGTLVTVSS VL: QSALTQPRSVSGSPGQSITISCTGGSSDIGASNSVSWYQQHPGKAPKLVIFDVTERPSGVPHRFSGSKSGNTASLTVSGLQPDDEADYFCCAYGGKYLVVFGGGTKVTVL [TCN-555 (5246_L16), listing 1 of 2 here] | 5 | 49 |  |  | 
TCN-555 (5246_L16) (antibody, V domains shown) VH: QVQLVQSGAEVKRPGSSVKVSCTASGGIFRKNAISWVRQAPGQGLEWMGGIIAVFNTANYAQKFQNRVKITADESGNTAYMELSSLTSDDTAVYYCASHPKYFYGSGSYPDFWGQGTLVTVSS VL: QSALTQPRSVSGSPGQSITISCTGGSSDIGASNSVSWYQQHPGKAPKLVIFDVTERPSGVPHRFSGSKSGNTASLTVSGLQPDDEADYFCCAYGGKYLVVFGGGTKVTVL [TCN-555 (5246_L16), listing 2 of 2 here] |  |  | 2.1 | 3.57 | 48
TCN-539 (5056_A08) (antibody, V domains shown) VH: QVQLVESGGGVVQPGRSLRLSCAASEITFITYAMHWVRQAPGKGLEWVALISDDGSNKFYADSVKGRFTISRDNSKNTLYLQMNSLRAEDTAAYYCAREGVYFDSGTYRGYFDYWGQETLVTVSS VL: EIVLTQSPATLSLSPGERATLSCRASQSVSSYLAWYQQKPGQAPRLLIYDASNRATGIPARFSGSGSGTDFTLTISSLEPEDFAVYYCQQRSHWPPITFGQGTRLEIK | 99 |  |  |  | 
TCN-537 (3194_D21) (antibody, V domains shown) VH: QVQLQQWGSGLLKPSETLSLTCAVYGGSFRDDYWTWIRQPPGKGLEWIGEINHSGRTNYNPSLKSRVTISVDTSLKQFSLKVISVTAADTAVYYCARGTSHVSRYFDWLPPTNWFDPWGQGTQVTVSS VL: DIVLTQSPGTLSLSPGERATLSCRASQSVSSSYLAWYQQKPGQAPRLVMYGAATRATGIPDRFSGSGSGPDFTLTISRLEPEDFAMYYCQQYGNSPITFGQGTRLEIK | 0 | 0 |  |  | 
TCN-554 (5277_M05) (antibody, V domains shown) VH: QVQLVQSGADLKKPGASVKVSCKASGYTFTDYYIHWVRQAPGQGLEWMGWINPESGDTKYAQKFQGRVTMTRDTSITTAYMELGRLRSDDTAVYYCARDVSTTWSWFAPWGQGTLVTVSS VL: DIVMTQSPDSLAVSLGERATINCRSSQSIFHNSNNENYLAWYQQKPGQPPKLLIYWASTRESGVPDRFSGSGSGTDFTLTISSLQAEDVAVYFCQQYYNAPLTFGGGTKVEIK | 100 |  |  |  | 
TCN-544 (5082_A19) (antibody, V domains shown) VH: QVQLQESGPGLVKPSETLSLTCTVSRGSIGHYFWSWIRQPPGKGLEWIGYISYSGSTKYNPSLRSRVTISVDTSKNQFSLNLNSVTATDTALYYCAREDYDILTGAGPGMEVWGQGTTVTVSS VL: QSMLTQPPSASGTPGQRVTISCSGSSSNIGSNTVNWFKHLPGTAPKLLIYRNDLRPSGVPDRFSGSKSGTSASLAISGLQSEDEADYYCATWDDSLNGFYVFGTGTKVTVL | 97 |  |  |  | 
TCN-550 (5096_F06) (antibody, V domains shown) VH: QVQLQESGPGLVKPSETLSLTCTVSGASINSHYWSWIRQPPGKGLEWIGYVYYSGSTTYNPSLKSRVTLSVDTSKNQFSLNLSSVTAADTAFYYCARHPYDVLTGSGDWFDPWGQGTLVTVSS VL: SYVLTQAPSVSVAPGQTARITCGGNAIGSKKVHWYQHKAGQAPVLVVYDDTDRPSGIPERFSGSNSWSTATLTINRVEAGDEADYYCQVWDFTIDHVVFGGGTKLTVL | 100 |  |  |  | 
TCN-552 (5249_I23) (antibody, V domains shown) VH: QVQVVQSGAEVKKPGSSVRVSCQASGGTFMNYAIIWVRRAPGQGLEWMGGIIPVFPTPNYAQMFQGRVTISTDESRSTSFLELTNLRYEDTAVYYCARRIYHGGNSGFDFWGQGTLVTVSS VL: EIVLTQSPATLSLSPGERATLSCRASQSVGNYLAWYQQKPGQAPRLLIYDSSNRAPGIPARFSGSGSGTDFTLTISSLAPEDFAVYYCQQRSKWPPMYSFGHGTKLEIK | 14 | 0 |  |  | 
TCN-551 (5243_D01) (antibody, V domains shown) VH: EVQLVQSGSEVKKPGESLKISCKGSGYSFSNYWIGWVRHMPGKGLEWMGIIYPGDSDTRYSPSFQGQVTMSADKSSSTVYLQWSSLKASDTAIYYCARRGGHSFGYGSGGDTHSEFDSWGQGTLVTVSS VL: QSVLTQSPSVSAAPGQKVTISCSGSDSNIGDYFVCWYQHLPGKPPQLLIYENNKRPSGIPDRFSGSKSGTSATLGITGIQTGDEADYYCATWDGSLSAWVFGGGTKLTVL | 6 | 99 |  |  | 
TCN-540 (5060_F05) (antibody, V domains shown) VH: QVQLVQSGGGVVQPGRSLRLSCAASGFTFSSYAMHWVRQAPGKGLEWVAIISYDGNDQYYTDSVKGRFTISRDSSKVYLQMHRLRPEDTAVYYCAKEFETSGYFHGSFDYWGQGILVTVSS VL: QSALTQPASVSGSPGQSITISCTGTSSDVGGYNYVSWYQQHPGKAPKLLIYEVTNWPSGVSNRFSGSKSGNTASLTISGLQAEDEADYYCSSYAGSSTWVFGGGTRVTVL | 98 | 3 |  |  | 

— patent US20120207760A1 (THERACLONE SCIENCES, published 2012)
